Numbering of substitutions follows the chain as printed.
T1: human CEA (carcinoembryonic antigen-related cell adhesion molecule 5; CEACAM5), membrane-bound on cells (human, UniProt P06731 35-685)
T1 sequence: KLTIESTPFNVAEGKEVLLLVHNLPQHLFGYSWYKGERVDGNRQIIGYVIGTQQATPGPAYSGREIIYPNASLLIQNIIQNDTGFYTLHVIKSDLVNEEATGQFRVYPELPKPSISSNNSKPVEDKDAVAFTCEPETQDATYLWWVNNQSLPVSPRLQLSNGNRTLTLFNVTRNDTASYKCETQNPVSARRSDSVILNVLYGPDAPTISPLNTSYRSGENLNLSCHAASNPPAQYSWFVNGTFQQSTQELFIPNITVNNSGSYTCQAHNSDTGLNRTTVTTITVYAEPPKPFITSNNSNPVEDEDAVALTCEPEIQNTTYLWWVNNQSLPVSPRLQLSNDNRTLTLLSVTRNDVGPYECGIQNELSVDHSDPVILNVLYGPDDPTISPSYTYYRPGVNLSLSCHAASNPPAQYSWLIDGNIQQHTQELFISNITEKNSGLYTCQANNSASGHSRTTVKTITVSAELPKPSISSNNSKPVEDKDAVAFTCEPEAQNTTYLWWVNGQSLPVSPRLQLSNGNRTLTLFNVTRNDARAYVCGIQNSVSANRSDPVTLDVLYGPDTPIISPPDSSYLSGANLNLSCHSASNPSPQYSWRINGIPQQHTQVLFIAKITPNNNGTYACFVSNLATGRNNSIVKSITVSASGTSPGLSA

T2: soluble human CEA antigen (sCEA; Abcam, Ltd, Cambridge UK) (human, UniProt P06731 35-685, limits assumed)
T2 sequence: T1 sequence

B1: IgG1 A5, derived from scFv A5 (antibody, V domains shown)
VH: EVQLVESGGGVVQPGRSLRLSCAASGFTLSTYAMHWVRQAPGKGLEWVALISNDGSNKYYADSVKGRFTISRDNSKNTLYLQMNSLRAEDTAVYYCARDRGLRFYFDYWGQGTTVTVSS
VL: QAVLTQPASLSASPGASASLTCTLRRGINVGAYSIYWYQQKPGSPPQYLLRYKSDSDKQQGSGVSSRFSASKDASANAGILLISGLQSEDEADYYCMIWHSGASAVFGGGTKLTVLG
B2: IgG1 B9, derived from scFv B9 (antibody, V domains shown)
VH: EVQLVESGGGLVQPGRSLRLSCAASGFTVSSYWMHWVRQAPGKGLEWVGFIRNKANGGTTEYAASVKGRFTISRDDSKNTLYLQMNSLRAEDTAVYYCARDRGLRFYFDYWGQGTTVTVSS
VL: B1 VL
B3: IgG1 D8, derived from scFv D8 (antibody, V domains shown)
VH: B1 VH with A97T
VL: B1 VL
B4: murine monoclonal antibody A5B7 (antibody, V domains shown)
VH: EVQLVESGGGLVQPGGSLRLSCATSGFTFTDYYMNWVRQPPGKALEWLGFIGNKANGYTTEYSASVKGRFTISRDKSQSILYLQMNTLRAEDSATYYCTRDRGLRFYFDYWGQGTTVTVSS
VL: DIELTQSPAILSASPGEKVTMTCRASSSVTYIHWYQQKPGSSPKSWIYATSNLASGVPARFSGSGSGTSYSLTISRVEAEDAATYYCQHWSSKPPTFGGGTKLEIK
notes: The parental murine monoclonal; also called mAb A5B7

Assays:
[1] = target: T1, human CEA (carcinoembryonic …); assay: cell-based or functional assay
[2] = target: T2, soluble human CEA antigen (sCEA; Abcam, …); assay: cell-based or functional assay
[3] = target: T2, soluble human CEA antigen (sCEA; Abcam, …); assay: not described (own data)

| Binder | ADCC EC50, sCEA 0 ug/ml [1] | ADCC EC50 in the presence of sCEA 1 ug/ml [1] | ADCC EC50 in the presence of sCEA 10 ug/ml [1] | Inhibitory factor (ADCC EC50 with 1 ug/ml sCEA divided by EC50 without sCEA) [2] | Inhibitory factor (ADCC EC50 with 10 ug/ml sCEA divided by EC50 without sCEA) [2] | binding result [3] |
| --- | --- | --- | --- | --- | --- | --- |
| B1 | 2.7 ng/mL | 4 ng/mL | 2.8 ng/mL | 1.5 fold | 1 fold | – |
| B2 | 4.8 ng/mL | 45.3 ng/mL | 53.4 ng/mL | 9.4 fold | 11.1 fold | – |
| B3 | 4.4 ng/mL | 14.7 ng/mL | 6.3 ng/mL | 3.3 fold | 1.4 fold | – |
| B4 | – | – | – | – | – | binds |

Source: patent US20090226444A1 (MICROMET, published 2009)
